Assays:
endogenous Erk = assay: Erk phosphorylation in transfected HeLa cells stimulated by PMA; settings: transfected expression plasmid, PMA stimulation
phospho Erk2-GST = assay: In vitro phosphatase assay on phospho Erk2-GST (Western blot); settings: for dephosphorylation of phospho-Erk2 substrate: purified protein, Western blot with anti phospho-Erk
[1] = system: histone H3 phosphorylation at Ser 10; assay: H3 pS10 signal in HeLa cells infected with the ospF strain after kinase inhibitor pretreatment; type: cell-based; settings: both inhibitors together, U0126 10 μM and SB203180 2.5 μM, 60 min pretreatment, 30 min infection
p38 MAP kinases = assay: p38 phosphorylation in transfected HeLa cells stimulated by TNF; type: cell-based; settings: transfected plasmid, TNF stimulation
Protocol: IF was performed with anti-OspF antibodies.

OspF = OspF (Shigella flexneri, UniProt Q8VSP9, R19K/S66F)
IL-8 promoter = assay: ChIP with anti-OspF antibody at the IL-8 promoter in transfected HeLa cells; type: cell-based
Protocol: (A) DNA isolated from sonicated cross-linked chromatin fragments used as inputs for Chlp assays run on a 2% agarose/TAE gel. (B) Cross-linked chromatin fragments were prepared from Caco 2 cells left untreated (ns) or infected with the WT or the ospF strains at the indicated time. For each time point, aliquots were immunoprecipitated with irrelevant IgG, anti-H3 methyl K9-pS10, or anti-p65 antibodies. Histograms show the results obtained by Real-Time PCR analysis using amplicon from the promoter region of IL-8. Data are expressed as relative enrichment as compared to the result obtained with the corresponding IgG that have been immunoprecipitated at the same time point. […] (C) The data are given as in figure (B) except that the aliquots were immunoprecipitated with irrelevant IgG or anti-RNAPII antibodies. […]
To address whether MAPK-induced H3pS10 in the vicinity of the IL-8 promoter, HeLa cells expressing the plasmids encoding WT ospF, or as control, a C-terminal deletion mutant of the last 30 amino acids ospF (1-221) unable to localize within the nucleus (FIG. 7G) were processed for chromatin immunoprecipitation (ChIP) assay using the anti-OspF antibody and the enrichment of OspF at the IL-8 promoter was analyzed by Real-Time quantitative PCR.
In unstimulated cells, no signal was detected at the IL-8 promoter (FIG. 7H). […]

^33P-labeled Erk2 = target: T1, ^33P-labeled Erk2 (Homo sapiens, UniProt P28482); assay: 33P-labeled Erk2 phosphatase assay, steady state kinetics; type: biochemical; settings: pH 8, 30° C., 100 nM phosphatase, 10 minutes, Michaelis-Menten fit; for Km: read-out: Km of Erk2 dephosphorylation
T1 construct: made in house
T1 sequence (P28482 whole entry): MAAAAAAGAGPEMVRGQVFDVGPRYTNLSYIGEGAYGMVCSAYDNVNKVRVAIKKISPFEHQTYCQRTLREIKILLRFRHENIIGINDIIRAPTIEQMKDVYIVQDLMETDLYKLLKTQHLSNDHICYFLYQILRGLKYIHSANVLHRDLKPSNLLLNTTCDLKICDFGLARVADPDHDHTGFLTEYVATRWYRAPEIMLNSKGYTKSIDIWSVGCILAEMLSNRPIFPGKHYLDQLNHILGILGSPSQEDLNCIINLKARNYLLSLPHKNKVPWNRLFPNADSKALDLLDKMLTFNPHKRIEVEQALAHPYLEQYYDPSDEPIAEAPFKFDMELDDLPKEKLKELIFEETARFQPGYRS
Source text: In vitro phosphatase assay.

phospho p38-GST = assay: In vitro phosphatase assay on purified phospho p38-GST; type: biochemical; settings: 50 nM substrate
IL-12 = assay: Cytokine production in infected lungs (murine pulmonary infection, ELISA); type: in vivo, mice; settings: lungs infected with M90T or ospF strain, 24 hours post-infection
Protocol: The cytokine/chemokine network induced upon infection with Shigella flexneri was analyzed by comparing the profiles obtained upon infection with the invasive strain carrying the virulence plasmid (INV+) and the non-invasive, plasmidless strain (INV−). The murine model of pulmonary infection was used since it was the only valid model to analyze the specific host immune response upon Shigella infection. Following infection with INV−, a Th1 type-network (IL-12, IL-18, CCL9, CCL10, CCL13, and CCL4) was induced. In contrast, a Th2/Tr1 profile (IL-10, CCL1, CCL24 and CCL2) was induced upon infection with INV+. The difference observed was not due to the bacterial dose used for the infection, but was dependent on the presence or absence of the virulence plasmid.
Some of these bacterial effectors are injected within the host cells by a type III secretion apparatus. Use of different bacterial mutants, has highlighted that the bacterial effectors involved in the immunomodulation were effectors secreted by the type III-secretion apparatus. Finally, OspF, a type III-secreted bacterial effector was responsible for the control of IL-12 production (FIG. 10).

phospho JNK1 = assay: In vitro phosphatase assay on purified phospho JNK1 Histidine; type: biochemical; settings: 50 nM substrate
NF-κB = assay: TNF-α-induced NF-κB reporter construct in Caco 2 cells; type: cell-based, human; settings: overexpression in Caco 2 cells
Source text: In addition to the classical MAPK-dependent target genes, OspF also repressed expression of some NF-κB-dependent chemokine genes such as IL-8. The IL-8 promoter contains an NF-κB binding site essential for expression of this gene (Hoffmann et al., 2002). Therefore, the inventors looked whether OspF interferes with the NF-κB signaling pathway.

[2] = system: histone H3 K14 acetylation; assay: Trichostatin-induced hyper acetylation on K14 in HeLa cells overexpressing OspF; type: cell-based
Source text: A plasmid encoding myc-labelled OspF was used to overexpress OspF in HeLa cells. […] Thus, variations of the levels of phosphoacetylated histone H3 are likely to reflect the sole capacity of OspF to reduce the level of phosphorylation at Ser10.

[3] = system: histone H3 phosphorylation at Ser 10; assay: H3 pS10 induced by okadaic acid in HeLa cells overexpressing OspF (immunofluorescence); type: cell-based; settings: 200 nM okadaic acid 3 hours
Protocol: (A) HeLa cells were left untreated (ns) or infected with the WT or the ospF strain at the indicated time. Indirect immunofluorescence detection was performed with anti-phospho-histone H3 S10 polyclonal antibody. (B) HeLa cells were synchronized by a double thymidine block (2 mM thymidine) and left untreated (ns) or infected with the WT or the ospF strain at the indicated time. Immunoblots were probed with anti-H3 phospho S10 (H3 pS10), anti-H3 methyl K9-phospho S10 (H3 metK9-pS10), anti-H3 phospho S10 acetyl-K14 (H3 p-S10/Ac-K14), anti Histone H3 polyclonal anti-pp 38 and pErk antibodies. (C) HeLa cells were transfected with pRK5myc-OspF vector and treated with 200 nM okadaic acid for 3 hours. IF was performed with anti-myc (red) and anti-H3 methyl K9-pS10 (green) antibodies. […] (D) One micogram of calf-thymus histone (Sigma) was incubated with 300 ng of His-OspF or with 120 U of λ phosphatase for 2 hours at 30° C. Western blot was performed with an anti-metK9-pS10 antibody. (E) One micogram of peptide metK9-S10 was spotted onto a nitrocellulose membrane that was incubated with buffers, 5 μg/ml of OspF, or 2000 U/ml of lambda phosphatase for 2 hours at 30° C. Western blot was performed with an anti-metK9-pS10 antibody. (F) HeLa cells were pretreated for 60 min with either the MEK1 inhibitor U0126 (10 μM) or the p38 inhibitor SB203180 (2.5 μM) or both. […]

[4] = system: histone H3 purified from calf thymus; assay: Direct dephosphorylation of histone H3 or H3 tail peptides in vitro; type: biochemical; settings: 2 hours 30° C., even at 100 fold increased enzyme concentration
[5] = target: 33P-labeled Erk2 (GST-Erk2 fusion protein phosphorylated in vitro by MEK1) [GST: P08515]
[6] = system: 33P-labeled Erk2 (GST-Erk2 fusion protein phosphorylated in vitro by MEK1) [GST: P08515]; remark: listed apart in the source

Molecule: C1805: OspF with Cys 180 mutated into Ser (printed C1805)
- ability to dephosphorylate Erk / prevent Erk phosphorylation in HeLa cells (endogenous Erk): None of the mutations

Molecule: D219: OspF with aspartate D219 mutated into asparagine
- dephosphorylation of phospho-Erk2 substrate (phospho Erk2-GST): did not impair phosphatase activity

Molecule: N#CC(=C(/N)Sc1ccccc1N)/C(C#N)=C(\N)Sc1ccccc1N [U0126]
- H3 pS10 signal induced by the ospF strain [1]: fully inhibited

Molecule: His to Leu mutation at position 172: OspF with His to Leu mutation at position 172
- ability to dephosphorylate Erk / prevent Erk phosphorylation in HeLa cells (endogenous Erk): retention of phosphatase activity

Molecule: C[S+]([O-])c1ccc(-c2nc(-c3ccc(F)cc3)c(-c3ccncc3)[nH]2)cc1 (centres unmarked) [SB 203180]
- H3 pS10 signal induced by the ospF strain [1]: fully inhibited

Molecule: myc-labelled OspF: myc labelled OspF expressed from plasmid pRK5myc-OspF
- prevention of p38 phosphorylation in HeLa cells (p38 MAP kinases): prevented phosphorylation
- ability to dephosphorylate Erk / prevent Erk phosphorylation in HeLa cells (endogenous Erk): prevented phosphorylation

Molecule: O=C(O)CN(CCN(CC(=O)O)CC(=O)O)CC(=O)O [EDTA]
- OspF activity blocked by EDTA (metal dependence) (OspF): not blocked

B1: OspF phosphatase (protein)
chain: MPIKKPCLKLNLDSLNVVKSEIPQMLSANERLKNNFNILYNQIRQYPAYYFKVASNVPTYSDICQFFSVMYQGFQIVNHSGDVFIHACRENPQSKGDFVGDKFHISIAREQVPLAFQILSGLLFSEDSPIDKWKITDMNRVSQQSRVGIGAQFTLYVKSDQECSQYSALLLHKIRQFIMCLESNLLRSKIAPGEYPASDVRPEDWKYVSYRNELRSDRDGSERQEQMLREEPFYRLMIE
- recruitment of OspF at the IL-8 promoter (IL-8 promoter; TNF-α stimulation): transient recruitment
- OspF at the IL-8 promoter (IL-8 promoter; unstimulated cells): not detectable
- Vmax of Erk2 dephosphorylation (^33P-labeled Erk2): 9.89 pM/s
- kcat of Erk2 dephosphorylation (^33P-labeled Erk2): 0.0001 s⁻¹
- Km (^33P-labeled Erk2): 0.204 µM
- dephosphorylation of purified phospho p38 (phospho p38-GST): directly dephosphorylated
- IL-12 production in vivo (IL-12): down regulated
- dephosphorylation of purified phospho JNK1 (phospho JNK1): failed to dephosphorylate
- TNF-α-induced activation of a NF-κB reporter construct (NF-κB): did not impair
- dephosphorylation of pT183 and pY185 residues of Erk (phospho Erk2-GST; 500 ng OspF, 50 ng phospho Erk2-GST, 1 hour 30° C.): dephosphorylated both Thr and Tyr residues
- dephosphorylation of phospho-Erk2 substrate (phospho Erk2-GST): directly dephosphorylated
- trichostatin-induced hyper acetylation on K14 [2]: did not impair
- induction of H3 pS10 by okadaic acid [3]: efficiently prevented
- direct dephosphorylation of histone H3 and metK9-pS10 / pS10 peptides [4]: did not directly dephosphorylate
- Km (release of radioactive inorganic phosphate, Michaelis-Menten fit, pH 8, 30° C., 100 nM enzyme) [5]: 204 nM
- Vmax (release of radioactive inorganic phosphate, Michaelis-Menten fit, pH 8, 30° C., 100 nM enzyme) [5]: 9.89 pM s^-1
- kcat (release of radioactive inorganic phosphate, Michaelis-Menten fit, pH 8, 30° C., 100 nM enzyme) [5]: 0.0001 s^-1

B2: MKP1 (enzyme, UniProt P28562 1-367, looked up, species assumed)
Dual specificity protein phosphatase 1: MVMEVGTLDAGGLRALLGERAAQCLLLDCRSFFAFNAGHIAGSVNVRFSTIVRRRAKGAMGLEHIVPNAELRGRLLAGAYHAVVLLDERSAALDGAKRDGTLALAAGALCREARAAQVFFLKGGYEAFSASCPELCSKQSTPMGLSLPLSTSVPDSAESGCSSCSTPLYDQGGPVEILPFLYLGSAYHASRKDMLDALGITALINVSANCPNHFEGHYQYKSIPVEDNHKADISSWFNEAIDFIDSIKNAGGRVFVHCQAGISRSATICLAYLMRTNRVKLDEAFEFVKQRRSIISPNFSFMGQLLQFESQVLAPHCSAEAGSPAMAVLDRGTSTTTVFNFPVSIPVHSTNSALSYLQSPITTSPSC
- Vmax of Erk2 dephosphorylation (^33P-labeled Erk2): 6.01 pM/s
- kcat of Erk2 dephosphorylation (^33P-labeled Erk2): 0.0006 s⁻¹
- Km (^33P-labeled Erk2): 0.229 µM
- Km (release of radioactive inorganic phosphate, Michaelis-Menten fit, 100 nM enzyme) [6]: 0.229 µM
- Vmax (release of radioactive inorganic phosphate, Michaelis-Menten fit, 100 nM enzyme) [6]: 6.01 pM/s
- dephosphorylation of 33P-labeled Erk2 (gel mobility in SDS-PAGE/autoradiography, phospho-Erk Western blot) [6]: Dephosphorylation of Erk2 by both enzymes was confirmed by the gel-mobility increase of the substrate
- kcat (release of radioactive inorganic phosphate, Michaelis-Menten fit, 100 nM enzyme) [6]: 0.0006 s⁻¹

Reference: patent US20100322974A1, “Targeting the histone code as a bacterial strategy for selectively modulating gene expression” (priority 2005, published 2010)
